Laboratory results as given in the supplement of paper PMC10126150.
± gives the standard deviation of the averaged measurements.

tested on: ATP; assay: switch fluorescence ratio, 500 uM ATP over buffer (Cy3 cluster intensity, sum of 5 cycles each) (fold (ratio)); higher = stronger signal-on switching upon ATP binding; sequences stand for … in TCGTCGGCAGCGTCAGATGTGTATAAGAGACAGTTTTTTTTTTTTTTTTTTTTTTTTT…TC; conditions: aptamer strand: ATP DNA aptamer (quencher-CACCTGGGGGAGTATTGCGGAGGAAGG + anchor), 100 nM annealed; ATP concentration: 500 uM
In short: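 Per cluster, summed Cy3 intensity from the target cycles was divided by that from the buffer cycles to give the fluorescence ratio, then averaged per switch-domain sequence. Clusters outside 100-1000 RFU were excluded. The Cy3-labelled switching-strand clusters, on a modified Illumina MiSeq flow-cell, were annealed to 100 nM quencher-labelled ATP aptamer and imaged in selection buffer, then after 15 min with 500 uM ATP at 22 °C, for five cycles with NaOH stripping and re-annealing between them.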
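Also: ATP exposure 15 min at 22 °C before imaging.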

ACATCAAAAT and TCTAGAAGCG are the same in switch fluorescence ratio: 1.001 ± 0.0015 for the first, 1.0039 ± 0.00082 for the second.

TAGTTTTCTG and GTTAGAGGGA are within error of each other in switch fluorescence ratio: 0.982 ± 0.017 for the first, 0.99589 ± 4.1e-05 for the second.

Compared with GCTCAGGGGG, GAGGGGACGG is lower in switch fluorescence ratio: 1.03 ± 0.016 for the first, 0.996 ± 0.015 for the second.

First: TCTAAGGCCC
Second: GTGAGCTTGT
The switch fluorescence ratio of the first is lower: 0.986 ± 0.011 for the first, 1.02 ± 0.013 for the second.

CGGGGTCGGA and TGCGTATTCT are within error of each other in switch fluorescence ratio: 0.999 ± 0.035 for the first, 0.967 ± 0.045 for the second.

Compared with GTTGAGAGGA, GATATTTTGA is higher in switch fluorescence ratio: 0.9636 ± 0.0018 for the first, 1.02 ± 0.019 for the second.

AGGTGTAAAT and GAGGGATGGT are within error of each other in switch fluorescence ratio: 1.003 ± 0.0016 for the first, 1.01 ± 0.029 for the second.

AAAATGGGTA and TCCAAATTTT are within error of each other in switch fluorescence ratio: 0.986 ± 0.034 for the first, 1.02 ± 0.016 for the second.

GGTTGGCCGT and CTTAAAGAGT are within error of each other in switch fluorescence ratio: 1.03 ± 0.051 for the first, 0.964 ± 0.043 for the second.

AGCGGGGTTC and TAGAGAGCCA are within error of each other in switch fluorescence ratio: 1.023 ± 0.0049 for the first, 1.03 ± 0.041 for the second.

Compared with GGCGCTCAGT, GTTTTAGCCA is lower in switch fluorescence ratio: 1.02 ± 0.02 for the first, 0.97 ± 0.013 for the second.

TTTGGGGAGA and GTTAGCAGGG are within error of each other in switch fluorescence ratio: 1 ± 0.041 for the first, 1.01 ± 0.044 for the second.

Compared with AAAGTTTTAT, CACCCGGGCA is higher in switch fluorescence ratio: 0.984 ± 0.025 for the first, 1.07 ± 0.06 for the second.

TTCGTTTGGG and CATGGTATTA are within error of each other in switch fluorescence ratio: 0.967 ± 0.047 for the first, 1.01 ± 0.044 for the second.

First: GGGACATAGT
Second: AGATAGGTGT
The switch fluorescence ratio of the first is lower: 0.9616 ± 0.0037 for the first, 1.079 ± 0.003 for the second.

GGTAGGTGGT and GGTATGTACG are within error of each other in switch fluorescence ratio: 0.98 ± 0.022 for the first, 1.03 ± 0.054 for the second.

Going from ACGGACAATC to AGGAGGGGGG, the switch fluorescence ratio falls from 1.47 ± 0.099 to 1.01 ± 0.039.

TCATGAATTT and CTCGGGGCGG are within error of each other in switch fluorescence ratio: 0.9885 ± 0.0089 for the first, 1.02 ± 0.037 for the second.

ATAGGCGGGT and TGCGAGTGCT are within error of each other in switch fluorescence ratio: 1.004 ± 0.005 for the first, 0.976 ± 0.037 for the second.

TTGCTACTCG and ACTAAGAATT are within error of each other in switch fluorescence ratio: 1.62 ± 0.73 for the first, 1.02 ± 0.013 for the second.

TTAAGGGTAA and TAGGAGAGAC are within error of each other in switch fluorescence ratio: 0.967 ± 0.047 for the first, 0.998 ± 0.057 for the second.

GTGGGTTGTT and CCTAGGTAAA are within error of each other in switch fluorescence ratio: 0.9719 ± 0.005 for the first, 0.993 ± 0.034 for the second.

First: AAATTGCTTA
Second: CAGGCTACCT
The switch fluorescence ratio of the first is lower: 1 ± 0.024 for the first, 1.2 ± 0.092 for the second.

ACTGGCAGGG and TGCTTGCTGT are within error of each other in switch fluorescence ratio: 1.01 ± 0.028 for the first, 0.991 ± 0.01 for the second.

Compared with AGGAATAGCG, CAGCTAGTCC is higher in switch fluorescence ratio: 1.021 ± 0.0061 for the first, 1.176 ± 0.0035 for the second.

CCAAATGAAT and AGTGGAATTC are within error of each other in switch fluorescence ratio: 1.03 ± 0.025 for the first, 1.04 ± 0.012 for the second.

ACGTGGTGTT and TTGGGTTTTG are within error of each other in switch fluorescence ratio: 1.003 ± 0.0035 for the first, 0.994 ± 0.031 for the second.

TTCGTTTTGG and TGATGTTCGA are within error of each other in switch fluorescence ratio: 1.01 ± 0.038 for the first, 1 ± 0.028 for the second.

CTTGGTGTAT and ATTTTTTTTT are within error of each other in switch fluorescence ratio: 1.03 ± 0.086 for the first, 1 ± 0.026 for the second.

Going from CGTTATTCAC to CACTTAACAG, the switch fluorescence ratio rises from 1.03 ± 0.036 to 1.1 ± 0.017.

GGGGTAGAAC and ATGTTAGTAC are within error of each other in switch fluorescence ratio: 0.992 ± 0.028 for the first, 1.03 ± 0.058 for the second.

TATACGGAAG and TATTCTAGAG are within error of each other in switch fluorescence ratio: 1.02 ± 0.046 for the first, 0.989 ± 0.044 for the second.

GGCACTTCCA and GCGTTTGTGG are within error of each other in switch fluorescence ratio: 1.03 ± 0.028 for the first, 1 ± 0.011 for the second.

Going from CCCGGAAGGT to ATGTTATTGT, the switch fluorescence ratio falls from 1.041 ± 0.0048 to 0.98 ± 0.049.

GGACGCTGTG and CGTAGGGGTG are within error of each other in switch fluorescence ratio: 0.986 ± 0.043 for the first, 0.969 ± 0.014 for the second.

CGGTAGCGCC and AATTGGACTA are within error of each other in switch fluorescence ratio: 0.99 ± 0.06 for the first, 0.976 ± 0.063 for the second.

Going from GCTAATTGTG to TTTTTAGCCA, the switch fluorescence ratio rises from 0.975 ± 0.0036 to 1.05 ± 0.024.

ATGGTCCGGT and TTATTCGGTT are within error of each other in switch fluorescence ratio: 0.988 ± 0.015 for the first, 0.982 ± 0.031 for the second.

TTTAGCACAG and AGGGACTGTG are within error of each other in switch fluorescence ratio: 1.06 ± 0.017 for the first, 1.01 ± 0.073 for the second.

GGTGACACAG and ATGCGTATCC are within error of each other in switch fluorescence ratio: 0.988 ± 0.017 for the first, 1 ± 0.034 for the second.

GCGTTTGCGC and ATAGTGAGGT are within error of each other in switch fluorescence ratio: 1.03 ± 0.016 for the first, 0.986 ± 0.038 for the second.

First: ACGTAACGCT
Second: ACACTTGCGC
The switch fluorescence ratio of the first is higher: 1.3 ± 0.052 for the first, 1.02 ± 0.038 for the second.

First: CGGGGGCATG
Second: GATATTTTTC
The switch fluorescence ratio of the first is lower: 1.013 ± 0.0094 for the first, 1.035 ± 0.0096 for the second.

TTTGGGACAG and GTGTGTGTAA are within error of each other in switch fluorescence ratio: 0.981 ± 0.031 for the first, 1.01 ± 0.045 for the second.

CTTAGGGGT and TTTTGAATTT are within error of each other in switch fluorescence ratio: 1.03 ± 0.015 for the first, 0.996 ± 0.032 for the second.

TTGGGCTATT and ATCATGTGTT are within error of each other in switch fluorescence ratio: 1.01 ± 0.015 for the first, 0.994 ± 0.022 for the second.

CTTGGAAGGG and AGTCTTAGCA are within error of each other in switch fluorescence ratio: 0.9683 ± 0.006 for the first, 0.991 ± 0.049 for the second.

TCCGGCGGTT and GGTCCCGGGG are within error of each other in switch fluorescence ratio: 1.01 ± 0.04 for the first, 1.05 ± 0.026 for the second.

TAGGGTATGT and AGCGGGGGTA are the same in switch fluorescence ratio: 1.01 ± 0.018 for the first, 1.01 ± 0.034 for the second.

ATAGTCAGAT and GCTATCGGGA are within error of each other in switch fluorescence ratio: 0.969 ± 0.014 for the first, 1.01 ± 0.037 for the second.

First: TTTTGATTGC
Second: ACTACACTTT
The switch fluorescence ratio of the first is lower: 1.03 ± 0.037 for the first, 1.27 ± 0.018 for the second.

TTGGTTGTTT and CGGACAGGGA are within error of each other in switch fluorescence ratio: 1 ± 0.052 for the first, 1.03 ± 0.035 for the second.

TTTTGGGGTT and TTGTTAGATG are within error of each other in switch fluorescence ratio: 0.997 ± 0.043 for the first, 1.011 ± 0.0066 for the second.

TGTAGTAGCG and AATGGCAATT are within error of each other in switch fluorescence ratio: 0.9901 ± 0.0064 for the first, 0.995 ± 0.033 for the second.

ACTGTGGGCA and ATGTTACATT are the same in switch fluorescence ratio: 1.01 ± 0.02 for the first, 1.01 ± 0.038 for the second.

CCTTTTTGAA and AGGTAGATGG are within error of each other in switch fluorescence ratio: 0.986 ± 0.049 for the first, 0.995 ± 0.0096 for the second.

ATGGGTGGTT and TTCGGCCCCA are within error of each other in switch fluorescence ratio: 0.995 ± 0.032 for the first, 0.99 ± 0.031 for the second.

ATAAGGGGGC and CAGTTCGGGA are the same in switch fluorescence ratio: 0.989 ± 0.041 for the first, 0.989 ± 0.02 for the second.

Compared with TACGTGCTCC, ACGGTTTATG is lower in switch fluorescence ratio: 1.144 ± 0.0012 for the first, 1.01 ± 0.058 for the second.

TAGGATGTCT and AGGGAGAGCC are within error of each other in switch fluorescence ratio: 1 ± 0.0021 for the first, 0.9957 ± 0.0041 for the second.

TTTAGACCCT and TAAGATAAAT are within error of each other in switch fluorescence ratio: 1.013 ± 0.0046 for the first, 1 ± 0.021 for the second.

GGGTAATTGG and ATTTTTCTAT are within error of each other in switch fluorescence ratio: 0.986 ± 0.018 for the first, 0.987 ± 0.027 for the second.

AATTCGTTGG and GGGAATCTTC are within error of each other in switch fluorescence ratio: 0.993 ± 0.026 for the first, 1.01 ± 0.034 for the second.

Going from ATGAGATAGT to GAGCTTACTT, the switch fluorescence ratio rises from 1.002 ± 0.0049 to 1.104 ± 0.011.

First: AATAGCAACT
Second: AAGGCTGATG
The switch fluorescence ratio of the first is higher: 1.06 ± 0.029 for the first, 0.983 ± 0.017 for the second.

AGCTTCTAAA and ATTGGCTAGT are within error of each other in switch fluorescence ratio: 0.976 ± 0.022 for the first, 0.966 ± 0.02 for the second.

GAAGGGGCGA and CTAAAAGAGG are within error of each other in switch fluorescence ratio: 0.972 ± 0.018 for the first, 0.997 ± 0.019 for the second.

AGAGGTGTCT and TCCAGGAGGT are within error of each other in switch fluorescence ratio: 1 ± 0.049 for the first, 1.02 ± 0.033 for the second.

AGGGCTAAGG and GGGTGACGGG are within error of each other in switch fluorescence ratio: 0.9995 ± 0.0034 for the first, 1.01 ± 0.074 for the second.

CAAGGGGTGG and TTGAATGGTT are within error of each other in switch fluorescence ratio: 0.996 ± 0.019 for the first, 0.994 ± 0.021 for the second.

TTGTTATGAT and AATAGCCGGG are within error of each other in switch fluorescence ratio: 1.01 ± 0.018 for the first, 0.97 ± 0.066 for the second.

GTTGTTAGGA and CGTTTTGCAT are within error of each other in switch fluorescence ratio: 0.961 ± 0.02 for the first, 1.09 ± 0.11 for the second.

Compared with GGGAGGCCGG, GACCAATATT is higher in switch fluorescence ratio: 1 ± 0.036 for the first, 1.134 ± 0.0034 for the second.

First: GGGCAAATGA
Second: TTTGGGTCAA
The switch fluorescence ratio of the first is lower: 0.9764 ± 0.0041 for the first, 1.012 ± 0.0074 for the second.

Going from GGCGTCTATC to CCACATCCAT, the switch fluorescence ratio rises from 1.01 ± 0.0096 to 1.044 ± 0.01.

AGTGTGGGGC and GTTTAATGGG are within error of each other in switch fluorescence ratio: 1.03 ± 0.0097 for the first, 0.999 ± 0.037 for the second.

In the case of TTCCACATTT, the switch fluorescence ratio is reported as 1.12 ± 0.16.
